Source: US20240108738A1 (Bicycle, published 2024)
Numbered stars: 1 amine (or outer) side, 2 acyl side, 3 side chain; on linkers, the order of the positions; unused ones are H or OH. Bridge positions count the residues as written; N and C are the ends. Square brackets hold non-standard residues; d marks the D form. Primed or numbered codes have the meaning given here. Ends that are not written are not given here. * marks the point of attachment. TBMT(3) = 2,4,6-tris(bromomethyl)-s-triazine scaffold, C(c1nc(C[*:2])nc(C[*:3])n1)[*:1]; TBMT = 2,4,6-tris(bromomethyl)-s-triazine, C(c1nc(C[*:2])nc(C[*:3])n1)[*:1]; TBMT″ = 2,4,6-tris(bromomethyl)-s-triazine, scaffold on three Cys; TATA = O=C(CC[*:1])N1CN(C(=O)CC[*:2])CN(C(=O)CC[*:3])C1; hPhe = N[C@@H](CCc1ccccc1)C(=O)O; Pent4ynoyl = C#CCCC(=O)*

What was measured:
[1] = target: T1, human CD16a V176 variant, biotinylated (human, UniProt P08637 17-208, N-terminally biotinylated in-house); assay: AlphaScreen competition vs mouse IgG2a
T1 construct: supplier is told for the AlphaScreen assay only; also called V Variant; FcγRIIIA V variant
T1 sequence (P08637 other isoform, or with tags, fused parts or gaps mutant limits assumed): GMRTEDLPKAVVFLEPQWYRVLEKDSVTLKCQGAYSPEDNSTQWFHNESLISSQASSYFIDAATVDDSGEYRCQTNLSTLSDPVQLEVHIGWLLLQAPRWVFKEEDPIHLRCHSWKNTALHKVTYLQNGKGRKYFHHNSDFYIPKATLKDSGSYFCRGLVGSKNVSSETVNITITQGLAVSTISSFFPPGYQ
Experimental: (§1) Bicyclic peptides were evaluated with a CD16a-IgG competition assay using Perkin Elmer AlphaScreen™ technology. Acceptor beads (Perkin Elmer 6762003) were chemically conjugated via a reductive amination reaction with a mouse IgG2a mAb to link via the free amines, based the manufacturer's protocol. Briefly, beads were centrifuged and resuspended in a 130 mM sodium phosphate buffered solution pH 8.0 containing 0.2 mg mAb, 20 mM NaBH₃CN (Sigma 296945) and 0.06% P20 surfactant (Cytiva Life Sciences, BR-1000-54) and incubated on a rotary shaker at 44° C. for 22 hours. Unbound sites were then blocked by adding a final concentration of 3 mg/ml carboxymethoxylamine (CMO) (Sigma C13408), before continuing shaking incubation for a further 1 hour. Beads were washed by centrifugation and resuspension in 100 mM TRIS-HCl pH 8.0 (Sigma T2694), before a final resuspension in PBS (GIBCO 14190)+0.05% Proclin-300 (Sigma 48912-U), at 5 mg/ml and storage at 4° C. until use.
(§2) The assay was performed in white 384 well plates (PerkinElmer, 6007290) using assay buffer 25 mM HEPES (Sigma-Aldrich, H0887), 100 mM NaCl (Sigma-Aldrich, S5150), 0.5% BSA (Sigma-Aldrich, A3294), 0.05% P20 (Cytiva Life Sciences, BR-1000-54), pH7.4 for all dilutions. […] Mouse IgG2a-conjugated acceptor beads described above were added at a final concentration of 20 ug/ml and incubated at room temperature for 30 minutes under subdued lighting. Streptavidin coated donor beads (PerkinElmer, 6760002) were added a final concentration of 20 ug/ml and incubated at room temperature for 60 minutes under subdued lighting. […] Data was normalised to a high control containing all assay components except Bicyclic peptide and fit to a four-parameter non-linear regression in GraphPad Prism 8.0.2 to generate an IC50 value.

[2] = target: T2, human CD16a F176 variant, biotinylated (human, UniProt P08637 17-208, C-terminally biotinylated); assay: AlphaScreen competition vs mouse IgG2a
T2 construct: supplier is told for the AlphaScreen assay only; also called F Variant; FcγRIIIA F variant
T2 sequence (P08637 17-208 limits assumed, change not shown): as the sequence (P08637 other isoform, or with tags, fused parts or gaps mutant limits assumed) above, with V160F counted along it
Experimental: as §1, §2

[3] = target: T3, CD16a/FCgRIIIa (F158 variant) on HEK293 cells, Terbium-labelled (UniProt P08637 17-254, limits assumed, Terbium donor dye); assay: HTRF competition vs IgG-d2 on HEK293 cells
T3 construct: whole, on cells; also called cellular CD16a
T3 sequence (P08637 17-254 limits assumed, change not shown): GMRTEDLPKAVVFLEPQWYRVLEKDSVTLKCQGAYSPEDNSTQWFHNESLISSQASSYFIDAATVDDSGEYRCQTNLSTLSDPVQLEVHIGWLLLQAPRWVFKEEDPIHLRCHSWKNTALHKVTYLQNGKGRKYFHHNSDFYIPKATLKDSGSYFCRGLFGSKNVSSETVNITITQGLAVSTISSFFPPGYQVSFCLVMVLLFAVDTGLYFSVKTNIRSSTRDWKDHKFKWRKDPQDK
Experimental: Binding to cellular CD16a/FCgRIIIa (F158 variant) was determined through competition with IgG for binding to CD16a receptors expressed on HEK293 cells.
The experimental procedure followed the manufacturer's instructions detailed in the product information for the CD16 (FCγRIIIa) kit (Cisbio-6FR3APAG). […] Bicycle peptides were dispensed using Echo compound handler at a top concentration of 20 μM. The competing unlabeled antibodies and bicyclic peptides were added in a three-fold dilution series in Tag-lite buffer into PerkinElmer-ProxiPlate-384 Plus.
The HEK293 cell expressing Terbium-labelled CD16a were thawed and washed in PBS and added to the wells of PerkinElmer-ProxiPlate-384 Plus containing the competitor compounds. […] The data was plotted in Graph pad prism and IC50-values were determined to indicate unlabeled antibody or bicyclic peptide competition for cellular binding to the CD16a receptor.

[4] = target: T1, human CD16a V176 variant, biotinylated; assay: SPR
Experimental: (§3) The SPR analysis was run at 25° C. at a flow rate of 50 μl/min with 60 seconds association and dissociation between 60 and 200 seconds. Data were corrected for DMSO excluded volume effects. All data were double-referenced for blank injections and reference surface using standard processing procedures and data processing and kinetic fitting were performed using Scrubber software, version 2.0c (BioLogic Software). Data were fitted using simple 1:1 binding model allowing for mass transport effects where appropriate.
(§4) For analysis of peptide binding, a Biacore 8k+ instrument was used with a CM5 chip (Cytiva). All experiments were carried out at 25° C. Streptavidin was immobilized on all flow cells by standard amine coupling chemistry. The running buffer was HBS-N(Cytiva, 10 mM HEPES, 0.15 M NaCl, pH 7.4) and the flow rate was 10 μl/min. The carboxymethyl dextran surface was activated with a 1:1 ratio of 0.4 M 1-ethyl-3-(3-dimethylaminopropyl) carbodiimide hydrochloride (EDC)/0.1 M N-hydroxy succinimide (NHS) (Cytiva) for 420s. Streptavidin (ProSpec, cat no. PRO-791) was diluted to 0.2 mg/ml in 10 mM sodium acetate pH 4.5 and was injected onto the chip surface for 600 s. Residual activated groups were blocked with a 420 s injection of 1 M ethanolamine (pH 8.5). The final surface density was 2000-3000 RU. Biotinylated CD16a was diluted to 5 μg/ml in HBS-N and was captured on flow cell 2 only of the streptavidin chip at a flow rate of 10 μl/min to 1500-2500 RU. The buffer was then changed to PBS-P+(Cytiva) supplemented with 0.5-2% DMSO. […] The flow rate was 30 μl/min with 100 s association and 400 s dissociation. Data were corrected for DMSO volume exclusion effects. All data were double-referenced against blank injections and reference surface response using standard processing procedures. Data processing and kinetic fitting was performed using Biacore Insight Evaluation Software with Extended Screening and Characterization Extension (Cytiva). Data were fitted using steady state affinity 1:1 binding model to determine KD. Data were fitted using kinetic 1:1 binding model to determine kinetic constants where appropriate.

[5] = target: T2, human CD16a F176 variant, biotinylated; assay: SPR
Experimental: as §3, §4

| Binder | IC50 [1] | IC50 [2] | IC50 [3] | Kd [4] | Kd [5] |
| --- | --- | --- | --- | --- | --- |
| ACRWSVEDPCGAWCAK-NH2 (linker 2-10-14 via TBMT (inferred); not fully specified (residue 16); also: homodimer via shared N-(amine-PEG2)-N-bis(PEG3-azide) linker, homodimer of BCY13883; scaffold TBMT; also called CD16a fluorescent dimer) [BCY15914] | 308 nM | 51.1 nM |  |  |  |
| ACVGLEELGPCSDLCAK-NH2 (linker 2-11-15 via TBMT (inferred); not fully specified (residue 17); also: homodimer via shared N-(amine-PEG2)-N-bis(PEG3-azide) linker, homodimer of BCY13886; scaffold TBMT; also called CD16a fluorescent dimer) [BCY15916] | 113 nM | 52.6 nM |  |  |  |
| ACRWSVEDPCGAWCA-NH2 (linker 2-10-14 via TBMT; also: scaffold TATA, TATB or TBMT, scaffold TBMT) [BCY14950] |  |  | 2040 nM |  |  |
| ACRWSVEDPC[dA]AWCA-NH2 (linker 2-10-14 via TBMT (inferred), scaffold TBMT) [BCY14956] |  |  | 1400 nM | 2150 nM | 2660 nM |
| ACRWHXSEPCGAWCA (CiRWH[Aze]SEPCiiGAWCiii, scaffold TBMT) [BCY20382] |  |  | 749 nM |  | 385 nM |
| ACRWSVEDPCGAWCAK(Pent4ynoyl)-NH2 (linker 2-10-14 via TBMT (inferred), scaffold TBMT) [BCY13883] | 2540 nM |  |  | 1520 nM |  |
| ACVGLEELGPCSDLCAK(Pent4ynoyl)-NH2 (linker 2-11-15 via TBMT (inferred), scaffold TBMT) [BCY13886] | 3190 nM | 1830 nM |  | 4280 nM | 8360 nM |
| ACRWHXSEXCGAWCA (CiRWH[HPhe]SE[Aze]CiiGAWCiii, scaffold TBMT) [BCY21689] |  |  | 1240 nM |  |  |
| ACRWHXSEPCGAWCA (CiRWH[4MePhe]SEPCiiGAWCiii, scaffold TBMT) [BCY20380] |  |  | 898 nM |  |  |
| CRWH[hPhe]SEPCGAWC-NH2 (linker 1-9-13 via TBMT″, scaffold TBMT) [BCY21693] |  |  | 377 nM |  |  |
| Ac-CRWH[hPhe]SEPCGAWC-NH2 (linker 1-9-13 via TBMT(3); SMILES CC(=O)N[C@H]1CSCc2nc3nc(n2)CSC[C@H](NC(=O)[C@@H]2CCCN2C(=O)[C@H](CCC(=O)O)NC(=O)[C@H](CO)NC(=O)[C@H](CCc2ccccc2)NC(=O)[C@H](Cc2c[nH]cn2)NC(=O)[C@H](Cc2c[nH]c4ccccc24)NC(=O)[C@H](CCCNC(=N)N)NC1=O)C(=O)NCC(=O)N[C@@H](C)C(=O)N[C@@H](Cc1c[nH]c2ccccc12)C(=O)N[C@H](C(N)=O)CSC3, scaffold TBMT) [BCY21694] |  |  | 166 nM |  |  |
| ACPPTVYCHPLDCAK-NH2 (linker 2-8-13 via TATA (inferred); not fully specified (residue 15); also: homodimer via shared N-(amine-PEG2)-N-bis(PEG3-azide) linker, homodimer of BCY15685; scaffold TATA; also called CD16a fluorescent dimer) [BCY15915] | 32.5 nM | 27.8 nM |  |  |  |
| ACRWSVEXPCGAWCA (CiRWSVE[Gla]PCiiGAWCiii, scaffold TBMT) [BCY16608] |  |  | 1800 nM |  |  |
| ACRWHFSEPC[dA]AWCA-NH2 (linker 2-10-14 via TBMT″ (inferred), scaffold TBMT) [BCY20392] |  |  |  | 385 nM | 825 nM |
| ACRWHXSEPCGAWCA (CiRWH[HyP]SEPCiiGAWCiii, scaffold TBMT) [BCY20383] |  |  | 1110 nM | 202 nM | 470 nM |
